This test has as its target T1, insulin receptor (InsR) expressed in ROS17/2.8 osteoblast cells (rat (by the cell line;  for …, UniProt P15127 27-1383, limits assumed).
T1 construct: The species is inferred from the cell line only; also called insulin receptor in ROS cells
In words: GST pull-down (substrate trapping) from ROS17/2.8 cell lysate, western blot.

T1 sequence (P15127 27-1383 limits assumed): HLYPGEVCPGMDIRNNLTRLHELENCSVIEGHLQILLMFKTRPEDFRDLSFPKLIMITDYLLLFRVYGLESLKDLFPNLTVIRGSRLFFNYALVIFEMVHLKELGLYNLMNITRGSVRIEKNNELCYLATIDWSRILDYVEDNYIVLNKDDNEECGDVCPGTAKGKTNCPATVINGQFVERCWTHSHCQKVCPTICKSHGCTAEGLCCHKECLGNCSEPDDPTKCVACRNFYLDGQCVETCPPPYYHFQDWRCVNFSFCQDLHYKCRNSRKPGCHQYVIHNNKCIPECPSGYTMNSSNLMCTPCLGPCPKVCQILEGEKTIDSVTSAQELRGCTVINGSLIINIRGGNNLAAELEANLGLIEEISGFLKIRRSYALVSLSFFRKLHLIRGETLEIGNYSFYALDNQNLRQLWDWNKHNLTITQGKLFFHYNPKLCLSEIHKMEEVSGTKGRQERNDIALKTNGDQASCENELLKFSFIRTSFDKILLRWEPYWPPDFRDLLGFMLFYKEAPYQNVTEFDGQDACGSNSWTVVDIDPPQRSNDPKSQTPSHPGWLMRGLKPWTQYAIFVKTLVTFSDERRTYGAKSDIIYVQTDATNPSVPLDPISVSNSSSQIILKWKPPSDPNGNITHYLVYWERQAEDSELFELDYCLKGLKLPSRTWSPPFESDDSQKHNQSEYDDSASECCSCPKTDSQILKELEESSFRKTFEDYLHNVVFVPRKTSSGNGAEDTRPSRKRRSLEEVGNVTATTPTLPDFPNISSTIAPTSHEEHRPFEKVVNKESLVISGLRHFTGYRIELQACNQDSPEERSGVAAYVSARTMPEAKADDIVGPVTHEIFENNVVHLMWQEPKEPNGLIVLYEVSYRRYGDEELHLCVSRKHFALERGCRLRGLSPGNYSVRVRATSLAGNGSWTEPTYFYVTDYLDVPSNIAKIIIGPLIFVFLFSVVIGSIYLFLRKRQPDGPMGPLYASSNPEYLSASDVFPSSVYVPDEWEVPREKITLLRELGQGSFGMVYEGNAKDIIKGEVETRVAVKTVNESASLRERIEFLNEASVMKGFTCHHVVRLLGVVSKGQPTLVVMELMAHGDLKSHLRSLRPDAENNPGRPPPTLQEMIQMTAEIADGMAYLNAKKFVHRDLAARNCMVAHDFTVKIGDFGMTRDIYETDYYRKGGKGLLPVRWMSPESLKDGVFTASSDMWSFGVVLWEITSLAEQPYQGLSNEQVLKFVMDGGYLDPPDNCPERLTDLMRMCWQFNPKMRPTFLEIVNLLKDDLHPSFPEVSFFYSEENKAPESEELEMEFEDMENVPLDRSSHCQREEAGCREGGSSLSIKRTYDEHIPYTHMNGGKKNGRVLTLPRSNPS
Experimental: Recombinant proteins bound to Sepharose beads for 1 hour at 4° C. (insulin receptor trapping) or for 2 h at 4° C. […] Precipitates were collected, washed four times with lysis buffer and resolved on SDS-PAGE, followed by western blotting. Insulin receptor (InsR) was detected using rabbit anti-insulin receptor antibodies (Santa-Cruz, C-19) and GST was detected by mouse anti-GST antibodies (Santa-Cruz).

B1: GST-PTP^WT (a fusion of GST with the phosphatase domain I of OST-PTP, rat a.a. 1116-1412) (enzyme)
chain: KELMPYNLWRTHRPIPIHSFRQSYEAKSAHAHQTFFQEFEELKEVGKDQPRLEAEHPDNIIKNRYPHVLPYDHSRVRLTQLPGEPHSDYINANFIPGYSHTQEIIATQGPLKKTLEDFWRLVWEQQVHVIIMLTVGMENGRVLCEHYWPANSTPVTHGHITIHLLAEEPEDEWTRREFQLQHGTEQKQRRVKQLQFTTWPDHSVPEAPSSLLAFVELVQEQVQATQGKGPILVHCSAGVGRTGTFVALLRLLRQLEEEKVADVFNTVYILRLHRPLMIQTLSQYIFLHSCLLNKILE
notes: also called WT OST-PTP; not shown: Glutathione S-transferase (GST) encoded by the vector pGEX 4T3 (Amersham)
Regarding B1, the binding result is recorded as “no binding”.

(Values after patent US20140128320A1 (TRUSTEES OF COLUMBIA UNIVERSITY IN THE CITY OF NEW YORK, published 2014).)
